Laboratory results published in US20240117030A1 (Pfizer, published 2024).

Tests used:
[1] = target: T1, recombinant human TSLP (glycosylated long form) (human, UniProt Q969D9 29-159); test: cell-based or functional assay
[2] = target: T1, recombinant human TSLP (glycosylated …); test: cell-based or functional assay; remark: listed apart in the source
[3] = target: T1, recombinant human TSLP (glycosylated …); test: cell-based or functional assay; remark: listed apart in the source
[4] = target: T1, recombinant human TSLP (glycosylated …); test: competition ELISA on coated TSLP; competitor biotinylated TSLP-0001 (69 pM)
[5] = target: T2, human IL-4 (human, UniProt P05112 25-153); test: cell-based or functional assay
T2 sequence (looked up): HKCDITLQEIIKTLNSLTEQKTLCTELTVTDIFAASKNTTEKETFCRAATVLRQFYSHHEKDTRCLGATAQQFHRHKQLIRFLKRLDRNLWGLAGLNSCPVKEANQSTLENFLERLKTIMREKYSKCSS

[6] = target: human IL-13 (human, UniProt P35225 35-146); test: cell-based or functional assay
[7] = target: T3, recombinant human IL-33 (wild type, Ser112-Thr270) (human, UniProt O95760 112-270); test: cell-based or functional assay
T3 sequence (looked up): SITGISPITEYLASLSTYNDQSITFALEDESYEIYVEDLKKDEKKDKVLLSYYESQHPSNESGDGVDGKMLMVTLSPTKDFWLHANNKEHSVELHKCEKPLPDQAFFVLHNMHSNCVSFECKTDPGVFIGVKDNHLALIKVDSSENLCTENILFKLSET

[8] = target: T4, human IL-4R alpha (human, UniProt P24394 26-825); test: cell-based or functional assay
[9] = target: T4, human IL-4R alpha; test: cell-based or functional assay; remark: listed apart in the source
[10] = target: T5, recombinant human IL-33 (R&D Systems 3625-IL) (human, UniProt O95760 112-270, limits assumed); test: cell-based or functional assay
T5 sequence (looked up): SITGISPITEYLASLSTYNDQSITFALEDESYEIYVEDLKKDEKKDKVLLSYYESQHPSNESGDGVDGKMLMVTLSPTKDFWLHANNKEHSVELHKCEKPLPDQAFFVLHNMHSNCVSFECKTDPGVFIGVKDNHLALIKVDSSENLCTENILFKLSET

[11] = target: T6, cynomolgus monkey IL-33 (Pfizer) (cynomolgus monkey, UniProt A0A2K5W3I1 112-269); test: cell-based or functional assay
T6 sequence: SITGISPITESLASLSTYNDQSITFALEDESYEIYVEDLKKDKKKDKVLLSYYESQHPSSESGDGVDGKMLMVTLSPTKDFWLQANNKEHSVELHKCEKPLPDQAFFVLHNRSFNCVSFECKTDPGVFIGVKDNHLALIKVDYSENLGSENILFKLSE

[12] = target: T5, recombinant human IL-33 (R&D Systems …); test: cell-based or functional assay; remark: listed apart in the source
[13] = target: T7, human TSLP short form (human, UniProt Q969D9-2 1-63, limits assumed); test: SPR (Biacore 8K, 37 C), antibody captured on anti-Fab antibody on a CM5 chip, 300 nM short form TSLP injected (concentration from Example 79)
T7 construct: also called sfTSLP; TSLPsf Avi V5 His 10 Biotin

B1: TSLP-0100 (antibody, human IgG1, V domains shown)
VH: QMQLVESGGGVVQPGRSLRLSCAASGFTFRTYGMHWVRQAPGKGLEWVAVIWYDGSNKHYADSVKGRFTISRDNSKNTLYLQMNSLRAEDTAVYYCARAPQWELVHEAFDIWGQGTMVTVSS
VL: SYVLTQPPSVSVAPGQTARITCGGNNLGSKSVHWYQQKPGQAPVLVVYDDSDRPSWIPERFSGSNSGNTATLTISRGEAGDEADYYCQVWDSSSDHVVFGGGTKLTVLG
notes: also called IL413TSLP-0100
- a-TSLP bioassay (IC50, pM) [1]: 24.6 pM
- a-TSLP TARC bioassay (fold change to TSLP-0001) [2]: 0.9 fold
- anti-hTSLP TARC bioactivity (fold change to TSLP-0001) [3]: 0.9 fold
- IC50 [4]: 870 pM

B2: IL13433-1042 (other)
heavy: EVQLVESGGGLVQPGGSLRLSCAASGFTFSSYWMYWVRQAPGKGLEWVAAITPNAGEDYYPESVKGRFTISRDNAKNSLYLQMNSLRAEDTAVYYCARGQYYYTKYSLGYWGQGTLVTVSSASTKGPSVFPLAPSSKSTSGGTAALGCLVKDYFPEPVTVSWNSGALTSGVHTFPAVLQSSGLYSLSSVVTVPSSSLGTQTYICNVNHKPSNTKVDKKVEPKSCRKTHTCPRCPAPEAAGAPSVFLFPPKPKDTLMISRTPEVTCVVVDVSHEDPEVKFNWYVDGVEVHNAKTKPREEQYNSTYRVVSVLTVLHQDWLNGKEYKCKVSNKALPAPIEKTISKAKGQPREPQVYTLPPSREEMTKNQVSLTCLVKGFYPSDIAVEWESNGQPENNYKTTPPVLDSDGSFFLYSRLTVDKSRWQQGNVFSCSVLHEALHSHYTQKSLSLSPGK
chain 1: DIQMTQSPSSLSASVGDRVTITCKASESVDHFGWSLVHWYQQKPGKAPKLLIYRASNLESGVPSRFSGSGSGTDFTLTISSLQPEDFATYYCQQSNEDPWTFGGGTKVEIKRTVAAPSVFIFPPSDEQLKSGTASVVCLLNNFYPREAKVQWKVDNALQSGNSQESVTEQDSKDSTYSLSSTLTLSKADYEKHKVYACEVTHQGLSSPVTKSFNRGECGGGGSEVTLRESGPALVKPTQTLTLTCTFSGFSLSNFGEGLSWIRQPPGKGLEWLAHIYWDDDKRYNPSLKSRLTISKDTSRNQVVLTMTNMDPVDTATYYCARRETVFYWYFDVWGQGTTVTVSSASTKGPSVFPLAPSSKSTSGGTAALGCLVKDYFPEPVTVSWNSGALTSGVHTFPAVLQSSGLYSLSSVVTVPSSSLGTQTYICNVNHKPSNTKVDKKVEPKSCEKTHTCPECPAPEAAGAPSVFLFPPKPKDTLMISRTPEVTCVVVDVSHEDPEVKFNWYVDGVEVHNAKTKPREEQYNSTYRVVSVLTVLHQDWLNGKEYKCKVSNKALPAPIEKTISKAKGQPREPQVYTLPPSREEMTKNQVSLTCEVKGFYPSDIAVEWESNGQPENNYKTTPPVLDSDGSFFLYSKLTVDKSRWQQGNVFSCSVLHEALHSHYTQKSLSLSPGK
light 1: DIQMTQSPSSLSASVGDRVTITCRASQPIHNHLDWYQQKPGKAPKLLIYFGKNLQEGVPSRFSGSGSGTDFTLTISSLQPEDFATYYCFQYKKGWSFGGGTKVEIKRTVAAPSVFIFPPSDEQLKSGTASVVCLLNNFYPREAKVQWKVDNALQSGNSQESVTEQDSKDSTYSLSSTLTLSKADYEKHKVYACEVTHQGLSSPVTKSFNRGEC
light 2: DIQMTQSPSSLSASVGDRVTITCRASQSVDEEGDSYMNWYQQKPGKAPKLLIYAASNLESGVPSRFSGSGSGTDFTLTISSLQPEDFATYYCQQSNEDPPTFGGGTKVEIKRTVAAPSVFIFPPSDEQLKSGTASVVCLLNNFYPREAKVQWKVDNALQSGNSQESVTEQDSKDSTYSLSSTLTLSKADYEKHKVYACEVTHQGLSSPVTKSFNRGEC
chain 2: EVQLVESGGGLVQPGGSLRLSCAASGFTFSSYAMSWVRQAPGKGLEWVASISSGDTTYYPDSVKGRFTISRDNAKNSLYLQMNSLRAEDTAVYYCARNEGYYFGLTLWGQGTLVTVSSASTKGPSVFPLAPSSKSTSGGTAALGCLVKDYFPEPVTVSWNSGALTSGVHTFPAVLQSSGLYSLSSVVTVPSSSLGTQTYICNVNHKPSNTKVDKKVEPKSC
- a-hIL-4 IC50 [pM] [5]: 7.1 pM
- a-hIL-13 IC50 [pM] [6]: 12.4 pM
- a-IL-33 bioassay (WT) IC50 [pM] [7]: 28 pM

B3: Dupilumab (antibody, V domains shown)
VH: EVQLVESGGGLEQPGGSLRLSCAGSGFTFRDYAMTWVRQAPGKGLEWVSSISGSGGNTYYADSVKGRFTISRDNSKNTLYLQMNSLRAEDTAVYYCAKDRLSITIRPRYYGLDVWGQGTTVTVSS
VL: DIVMTQSPLSLPVTPGEPASISCRSSQSLLYSIGYNYLDWYLQKSGQSPQLLIYLGSNRASGVPDRFSGSGSGTDFTLKISRVEAEDVGFYYCMQALQTPYTFGQGTKLEIKR
- IC50 (median), IL-4 induced CD23 expression on human monocytes [8]: 104 pM
- IC50 (median), IL-13 induced CD23 expression on human monocytes [9]: 93.2 pM

B4: IL13433-1258 (antibody)
heavy: EVQLVESGGGLVQPGGSLRLSCAASGFTFSSYWMYWVRQAPGKGLEWVAAITPNAGEDYYPESVKGRFTISRDNAKNSLYLQMNSLRAEDTAVYYCARGQYYYTKYSLGYWGQGTLVTVSSASTKGPSVFPLAPSSKSTSGGTAALGCLVKDYFPEPVTVSWNSGALTSGVHTFPAVLQSSGLYSLSSVVTVPSSSLGTQTYICNVNHKPSNTKVDKKVEPKSCRKTHTCPPCPAPEAAGAPSVFLFPPKPKDTLMISRTPEVTCVVVDVSHEDPEVKFNWYVDGVEVHNAKTKPREEQYNSTYRVVSVLTVLHQDWLNGKEYKCKVSNKALPAPIEKTISKAKGQPREPQVYTLPPSREEMTKNQVSLTCLVKGFYPSDIAVEWESNGQPENNYKTTPPVLDSDGSFFLYSRLTVDKSRWQQGNVFSCSVLHEALHSHYTQKSLSLSPGK
light 1: DIQMTQSPSSLSASVGDRVTITCRASQPIHNHLDWYQQKPGKAPKLLIYFGKNLQEGVPSRFSGSGSGTDFTLTISSLQPEDFATYYCFQYKKGWSFGGGTKVEIKRTVAAPSVFIFPPSDEQLKSGTASVVCLLNNFYPREAKVQWKVDNALQSGNSQESVTEQDSKDSTYSLSSTLTLSKADYEKHKVYACEVTHQGLSSPVTKSFNRGEC
chain 1: DIQMTQSPSSLSASVGDRVTITCKASESVDHFGWSLVHWYQQKPGKAPKLLIYRASNLESGVPSRFSGSGSGTDFTLTISSLQPEDFATYYCQQSNEDPWTFGGGTKVEIKRTVAAPSVFIFPPSDEQLKSGTASVVCLLNNFYPREAKVQWKVDNALQSGNSQESVTEQDSKDSTYSLSSTLTLSKADYEKHKVYACEVTHQGLSSPVTKSFNRGECGGGGSEVTLRESGPALVKPTQTLTLTCTFSGFSLSNFGEGLSWIRQPPGKGLEWLAHIYWDDDKRYNPSLKSRLTISKDTSRNQVVLTMTNMDPVDTATYYCARRETVFYWYFDVWGQGTTVTVSSASTKGPSVFPLAPSSKSTSGGTAALGCLVKDYFPEPVTVSWNSGALTSGVHTFPAVLQSSGLYSLSSVVTVPSSSLGTQTYICNVNHKPSNTKVDKKVEPKSCEKTHTCPPCPAPEAAGAPSVFLFPPKPKDTLMISRTPEVTCVVVDVSHEDPEVKFNWYVDGVEVHNAKTKPREEQYNSTYRVVSVLTVLHQDWLNGKEYKCKVSNKALPAPIEKTISKAKGQPREPQVYTLPPSREEMTKNQVSLTCEVKGFYPSDIAVEWESNGQPENNYKTTPPVLDSDGSFFLYSKLTVDKSRWQQGNVFSCSVLHEALHSHYTQKSLSLSPGK
light 2: DIQMTQSPSSLSASVGDRVTITCRASQSVDEEGDSYMNWYQQKPGKAPKLLIYAASNLESGVPSRFSGSGSGTDFTLTISSLQPEDFATYYCQQSNKDPPTFGGGTKVEIKRTVAAPSVFIFPPSDEQLKSGTASVVCLLNNFYPREAKVQWKVDNALQSGNSQESVTEQDSKDSTYSLSSTLTLSKADYEKHKVYACEVTHQGLSSPVTKSFNRGEC
chain 2: EVQLVESGGGLVQPGGSLRLSCAASGFTFSSYAMSWVRQAPGKGLEWVASISSGDTTYYPDSVKGRFTISRDNAKNSLYLQMNSLRAEDTAVYYCARNEGYYFGLTLWGQGTLVTVSSASTKGPSVFPLAPSSKSTSGGTAALGCLVKDYFPEPVTVSWNSGALTSGVHTFPAVLQSSGLYSLSSVVTVPSSSLGTQTYICNVNHKPSNTKVDKKVEPKSC
- IC50, IL-33-induced SEAP activity in HEK-Blue IL-33 SEAP cells (median) [10]: 13.4 pM
- IC50, IL-33-induced SEAP activity in HEK-Blue IL-33 SEAP cells (median) [11]: 274 pM
- IC50 (pM) HEK-Blue IL-33 SEAP (mean) [12]: 13.4 pM

B5: TSLP-0875 (antibody, human IgG1, lambda, V domains shown)
VH: QMQLVESGGGVVQPGRSLRLSCAASGFTFRTYGMHWVRQAPGKGLEWVAVIWYDGSNKHYADSVKGRFTISRDNSKNTLYLQMNSLRAEDTAVYYCARAPQWYLVHEAFDIWGQGTMVTVSS
VL: SYVLTQPPSVSVAPGQTARITCGGNNLGSKSVHWYQQKPGQAPVLVVYDDKDRPSWIPERFSGSNSGNTATLTISRGEAGDEADYYCQVWDSKSDHVVFGGGTKLTVLG
- binding result [13]: no binding (tested: 300 nM)
